How the values were obtained:
[1] = biological target: T1, USP47 (human, UniProt Q96K76 1-1375, limits assumed); assay: IP/MS, LZTR1 R810W-FLAG, U87
T1 sequence (looked up): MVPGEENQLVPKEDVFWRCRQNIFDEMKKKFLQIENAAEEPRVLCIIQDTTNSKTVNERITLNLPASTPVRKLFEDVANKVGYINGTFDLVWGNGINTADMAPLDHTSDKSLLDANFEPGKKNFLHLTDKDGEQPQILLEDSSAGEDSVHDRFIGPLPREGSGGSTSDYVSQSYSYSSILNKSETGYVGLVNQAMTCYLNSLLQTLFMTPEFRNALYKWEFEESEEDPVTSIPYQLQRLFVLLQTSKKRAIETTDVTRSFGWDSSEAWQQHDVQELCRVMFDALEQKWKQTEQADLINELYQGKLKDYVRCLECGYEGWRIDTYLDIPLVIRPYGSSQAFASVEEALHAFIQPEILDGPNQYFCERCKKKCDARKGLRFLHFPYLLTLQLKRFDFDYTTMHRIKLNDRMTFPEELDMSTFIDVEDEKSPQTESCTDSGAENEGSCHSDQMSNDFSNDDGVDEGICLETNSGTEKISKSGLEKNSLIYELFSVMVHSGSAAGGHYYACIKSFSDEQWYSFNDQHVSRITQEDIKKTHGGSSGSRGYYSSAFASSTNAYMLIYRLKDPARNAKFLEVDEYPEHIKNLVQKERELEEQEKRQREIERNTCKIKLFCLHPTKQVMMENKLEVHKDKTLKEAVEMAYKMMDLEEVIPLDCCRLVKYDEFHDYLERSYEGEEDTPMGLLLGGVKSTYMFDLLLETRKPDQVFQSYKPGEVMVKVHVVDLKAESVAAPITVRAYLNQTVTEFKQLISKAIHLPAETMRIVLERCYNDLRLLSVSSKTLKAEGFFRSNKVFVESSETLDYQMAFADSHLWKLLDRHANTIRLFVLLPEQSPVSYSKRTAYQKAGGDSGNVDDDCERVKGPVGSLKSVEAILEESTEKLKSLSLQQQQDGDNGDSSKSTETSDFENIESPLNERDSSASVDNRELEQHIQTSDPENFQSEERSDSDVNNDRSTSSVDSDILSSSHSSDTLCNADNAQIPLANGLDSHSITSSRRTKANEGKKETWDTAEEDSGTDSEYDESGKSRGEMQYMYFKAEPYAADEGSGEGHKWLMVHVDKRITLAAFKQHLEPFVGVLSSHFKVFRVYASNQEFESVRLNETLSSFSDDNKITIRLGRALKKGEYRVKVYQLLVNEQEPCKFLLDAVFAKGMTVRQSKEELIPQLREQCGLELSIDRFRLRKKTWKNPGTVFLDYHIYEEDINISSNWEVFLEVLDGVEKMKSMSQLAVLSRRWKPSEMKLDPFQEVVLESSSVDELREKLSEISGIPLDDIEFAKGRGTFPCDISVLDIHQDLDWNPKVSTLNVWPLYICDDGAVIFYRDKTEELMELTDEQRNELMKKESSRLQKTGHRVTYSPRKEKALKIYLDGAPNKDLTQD
In short: (§1)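 Read-out: spectral counts from LC-MS/MS (Orbitrap Fusion) after MaxQuant identification. Variable modifications were Met oxidation, protein N-terminal acetylation and N/Q deamidation.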

[2] = biological target: MYO10 (human, UniProt Q9HD67 1-2058, limits assumed); assay: IP/MS, LZTR1 R810W-FLAG, U87
In short: as §1

Sequence of MYO10 (Q9HD67 whole entry): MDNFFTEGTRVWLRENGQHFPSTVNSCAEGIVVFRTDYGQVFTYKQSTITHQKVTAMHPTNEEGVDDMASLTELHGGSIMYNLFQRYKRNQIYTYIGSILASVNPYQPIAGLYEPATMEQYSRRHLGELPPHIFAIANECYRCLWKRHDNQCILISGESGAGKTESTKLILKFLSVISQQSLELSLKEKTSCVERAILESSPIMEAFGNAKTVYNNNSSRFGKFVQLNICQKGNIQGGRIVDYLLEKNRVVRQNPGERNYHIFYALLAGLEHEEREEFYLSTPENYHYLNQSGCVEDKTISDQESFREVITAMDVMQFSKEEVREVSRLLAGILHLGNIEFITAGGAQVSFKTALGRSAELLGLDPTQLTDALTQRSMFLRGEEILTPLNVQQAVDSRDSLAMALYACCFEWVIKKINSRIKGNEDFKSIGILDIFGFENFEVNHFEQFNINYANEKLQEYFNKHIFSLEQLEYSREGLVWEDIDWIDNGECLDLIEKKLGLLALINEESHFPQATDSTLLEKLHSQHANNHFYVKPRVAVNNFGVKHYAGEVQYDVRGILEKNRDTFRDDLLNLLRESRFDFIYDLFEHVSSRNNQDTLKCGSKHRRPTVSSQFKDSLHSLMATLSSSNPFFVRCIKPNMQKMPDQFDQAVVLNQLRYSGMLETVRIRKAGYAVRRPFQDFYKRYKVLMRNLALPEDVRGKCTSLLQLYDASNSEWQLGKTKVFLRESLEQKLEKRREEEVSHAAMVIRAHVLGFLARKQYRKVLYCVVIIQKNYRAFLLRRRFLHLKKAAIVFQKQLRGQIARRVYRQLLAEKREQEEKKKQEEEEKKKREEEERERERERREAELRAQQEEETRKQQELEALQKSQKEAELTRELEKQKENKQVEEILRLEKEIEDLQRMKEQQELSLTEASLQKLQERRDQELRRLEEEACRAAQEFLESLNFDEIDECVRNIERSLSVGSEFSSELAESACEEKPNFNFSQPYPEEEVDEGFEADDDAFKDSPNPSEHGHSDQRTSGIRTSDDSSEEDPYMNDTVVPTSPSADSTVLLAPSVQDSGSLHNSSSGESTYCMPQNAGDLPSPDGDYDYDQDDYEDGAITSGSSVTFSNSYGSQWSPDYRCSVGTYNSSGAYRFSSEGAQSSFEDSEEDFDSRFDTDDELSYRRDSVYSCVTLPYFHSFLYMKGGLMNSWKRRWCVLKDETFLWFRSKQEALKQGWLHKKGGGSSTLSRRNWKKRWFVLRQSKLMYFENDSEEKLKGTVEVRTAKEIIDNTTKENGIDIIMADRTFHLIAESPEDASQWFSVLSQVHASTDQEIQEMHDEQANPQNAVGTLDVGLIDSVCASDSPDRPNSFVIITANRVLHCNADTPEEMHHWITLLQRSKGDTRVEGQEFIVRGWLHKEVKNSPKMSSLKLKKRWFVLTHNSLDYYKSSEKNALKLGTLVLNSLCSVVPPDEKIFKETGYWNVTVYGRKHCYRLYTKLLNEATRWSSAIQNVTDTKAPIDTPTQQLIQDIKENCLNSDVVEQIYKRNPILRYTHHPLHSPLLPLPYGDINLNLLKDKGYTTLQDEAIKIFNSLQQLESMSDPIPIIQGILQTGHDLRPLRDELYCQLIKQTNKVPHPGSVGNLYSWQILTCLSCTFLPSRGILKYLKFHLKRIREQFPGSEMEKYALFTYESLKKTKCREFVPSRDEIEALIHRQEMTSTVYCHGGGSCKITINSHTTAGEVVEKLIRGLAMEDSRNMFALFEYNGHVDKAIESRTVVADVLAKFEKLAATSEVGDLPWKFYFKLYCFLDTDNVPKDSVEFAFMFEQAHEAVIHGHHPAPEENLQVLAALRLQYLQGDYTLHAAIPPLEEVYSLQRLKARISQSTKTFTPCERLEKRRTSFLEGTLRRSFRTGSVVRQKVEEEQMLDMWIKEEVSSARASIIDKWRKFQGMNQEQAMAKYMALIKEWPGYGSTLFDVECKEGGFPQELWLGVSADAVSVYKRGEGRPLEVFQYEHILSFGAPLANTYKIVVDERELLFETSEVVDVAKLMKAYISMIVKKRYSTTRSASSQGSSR

B1: LZTR1 R810W-FLAG (other, human, UniProt Q8N653 1-840, looked up)
chain: MAGPGSTGGQIGAAALAGGARSKVAPSVDFDHSCSDSVEYLTLNFGPFETVHRWRRLPPCDEFVGARRSKHTVVAYKDAIYVFGGDNGKTMLNDLLRFDVKDCSWCRAFTTGTPPAPRYHHSAVVYGSSMFVFGGYTGDIYSNSNLKNKNDLFEYKFATGQWTEWKIEGRLPVARSAHGATVYSDKLWIFAGYDGNARLNDMWTIGLQDRELTCWEEVAQSGEIPPSCCNFPVAVCRDKMFVFSGQSGAKITNNLFQFEFKDKTWTRIPTEHLLRGSPPPPQRRYGHTMVAFDRHLYVFGGAADNTLPNELHCYDVDFQTWEVVQPSSDSEVGGAEVPERACASEEVPTLTYEERVGFKKSRDVFGLDFGTTSAKQPTQPASELPSGRLFHAAAVISDAMYIFGGTVDNNIRSGEMYRFQFSCYPKCTLHEDYGRLWESRQFCDVEFVLGEKEECVQGHVAIVTARSRWLRRKITQARERLAQKLEQEAAPVPREAPGVAAGGARPPLLHVAIREAEARPFEVLMQFLYTDKIKYPRKGHVEDVLLIMDVYKLALSFQLCRLEQLCRQYIEASVDLQNVLVVCESAARLQLSQLKEHCLNFVVKESHFNQVIMMKEFERLSSPLIVEIVRRKQQPPPRTPLDQPVDIGTSLIQDMKAYLEGAGAEFCDITLLLDGHPRPAHKAILAARSSYFEAMFRSFMPEDGQVNISIGEMVPSRQAFESMLRYIYYGEVNMPPEDSLYLFAAPYYYGFYNNRLQAYCKQNLEMNVTVQNVLQILEAADKTQALDMKRHCLHIIVHQFTKVSKLPTLWSLSQQLLLDIIDSLASHISDKQCAELGADI
notes: Stably expressed in U87 cells by lentivirus; also called LZTR1-FLAG-R810W; LZTR1 RW; not shown: FLAG tag
- binding result [1]: binds
- binding result [2]: binds

Reference: US20250262210A1 (TRUSTEES OF COLUMBIA UNIVERSITY IN THE CITY OF NEW YORK, published 2025)
